{"source": "the nanobody polyreactivity screen of Harvey et al. (2022)", "data": [{"assay": "yeast display, Sf9 membrane polyspecificity reagent, FACS + sequencing; frameworks hold sequencing errors", "outline": "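Sorting gates, low and high (top ~1%), were placed on anti-HA fluorescence to track expression and on streptavidin fluorescence to track reagent binding. A clone's polyreactivity label is taken from the gate it came out of. The reagent was 10% biotinylated, detergent-solubilized Sf9 membrane, applied for 1 hour at 4 °C to galactose-induced yeast display cells.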", "values": [{"sequence": "QVQLVESGGGLVQAGGSLRLICAASGLTYFSYAMGWYRQAPGKQREFVAAITRRGGRTYYADSVKGRFTISRDNAKYTVYLQMNSLKPEDTAVYYCNAVPVLISVYRMEYWGQGTQVTVSS", "polyreactivity (PSR sort gate)": "high polyreactivity"}, {"sequence": "QVQLVESGGGLVQAGGSLRLICAASGNIFGAYAMGWNIQAPGKERELVAVIRFDDGSTYYADSVKGRFTISRDNAKNTVYLQMNSLKPEDTAVDFCAVRLYLEMDYWGQGTQVTVSA", "polyreactivity (PSR sort gate)": "high polyreactivity"}, {"sequence": "QVQLVESGGGLVQAGGSLRLICAASGNTFRYYAMGWYRQAPGKERELDAAINSRGGTTSYADSVKGRFTISRDNAKNTVYLQMNSLKPEDTAVYYCAARSYYRGTFYPYYYWGQGTQVTVSS", "polyreactivity (PSR sort gate)": "high polyreactivity"}, {"sequence": "QVQLVESGGGLVQAGGSLRLICAASGNTIIRYAIGWFRQAPGKERELVAAISYSGGRTYYADSVKGRFTISRDNAKNTVYLQMNSVKPEDTAVYYCNAASRYGGDYWGQGTQVTVSS", "polyreactivity (PSR sort gate)": "low polyreactivity"}, {"sequence": "QVQLVESGGGLVQAGGSLRLICAASGRIFGANAMGWYIQAPGKERELVAAISRTGGSKYYADSVKGRFTISRDNAKNTVYLQMNSLKPEDTAVYYCNAVYRYAHPMEYWGQGTQVTVSS", "polyreactivity (PSR sort gate)": "high polyreactivity"}, {"sequence": "QVQLVESGGGLVQAGGSLRLICAASGRIFGGNAMGWYRQAPGKERELVAPISRSGGSTYYADSVKVRFTISLDNAKNTVYLQMNSLIPEDTAVYYCAAVRRPGTGKYTEYDYWGQGTQVTVSS", "polyreactivity (PSR sort gate)": "high polyreactivity"}, {"sequence": "QVQLVESGGGLVQAGGSLRLICAASGRIFGLYAMGWYRQAPGKERELVAGITYSGGTTYYADSVKGRFPISRDNAKNTVYLQMNSLKPEDTAVYYCNKRWYYQYGQSHVRLYDYWGQGTQVTVSS", "polyreactivity (PSR sort gate)": "high polyreactivity"}, {"sequence": "QVQLVESGGGLVQAGGSLRLICAASGRIFGYYVMGWSRQSPGKERQLVAAIRSSADSTYYADSVKGRFTISRDNAKNTVYLQMNSLKPEDTAVYYCAAQSPAYYTKSYWGQGTQVTVSS", "polyreactivity (PSR sort gate)": "low polyreactivity"}, {"sequence": "QVQLVESGGGLVQAGGSLRLICAASGRIFHYYAMGWYRQAPGKERELVAAIRWSGGDTYYADSVKGRFTISRDNAKNTVYLQMNSLKPEDTAVYYCAAYDHVYEYDYWGQGTQVTVSS", "polyreactivity (PSR sort gate)": "low polyreactivity"}, {"sequence": "QVQLVESGGGLVQAGGSLRLICAASGRIFITNTMGWYRQAPGKETELVAAISRTGGSTYYADSVKGRFTISRDNAKNTVYLQMNSLKPEDTAVYFCNAVVRGYAQGAGFDYWGQGTQVTVSS", "polyreactivity (PSR sort gate)": "high polyreactivity"}, {"sequence": "QVQLVESGGGLVQAGGSLRLICAASGRIFKWYAMGWYRQAPGKERELVATITWSGGSTYYADSVKGRFTISRDNAKNTVYLQMNSLKPEDTAVYNCNADTWLALPGFDYWGQGTQVTVSS", "polyreactivity (PSR sort gate)": "high polyreactivity"}, {"sequence": "QVQLVESGGGLVQAGGSLRLICAASGRIFSKNAMGWYRQAPGKEREFVAAISRIGGRTYYADSVKGRFTISRDNAKNTVYFQMNSLKPEDTAVYYCATVHYGYTTSYDYWGQGTQVTVSS", "polyreactivity (PSR sort gate)": "high polyreactivity"}, {"sequence": "QVQLVESGGGLVQAGGSLRLICAASGRIFWSNTMGWYRQAPGKERELVAAISGRGGSTYYADSVKGRFTISRDNAKNTVYLQMNSLKPEDTAVYYCAAKPTRSRKIYEYWGQGTQVTVSS", "polyreactivity (PSR sort gate)": "low polyreactivity"}, {"sequence": "QVQLVESGGGLVQAGGSLRLICAASGRIFYGYAMGWSRQAPGKERELVAAIRWSGGRTYYADSVKGRFTISRDNAKNTVYLQMNSLKPEATAVYYCAADYGYRSYVRFLSANYDYWGKGTQVTVSS", "polyreactivity (PSR sort gate)": "high polyreactivity"}, {"sequence": "QVQLVESGGGLVQAGGSLRLICAASGRIFYSYSMGWSRPAPGKERELVATITTSGKTYYADSVNGRFTISRDNAKNTVYLQMNSLIPDDTAVYYCNAGWDLVYGYYPRRKIFDYWGQGTQVTVSS", "polyreactivity (PSR sort gate)": "high polyreactivity"}, {"sequence": "QVQLVESGGGLVQAGGSLRLICAASGRILYYNVMVWYRQAPGKEREMVASITSVVSTNYADSVKGRFTISRDNAKNTVYLQMNSLKPEDTAVYYCAARYFSGSYSDQIWGMDYWGQGTQLTVSS", "polyreactivity (PSR sort gate)": "high polyreactivity"}, {"sequence": "QVQLVESGGGLVQAGGSLRLICAASGRTFADYAMGWYRQAPGKERELVAAISWRGGSTYYADSVKGRFTISRDNAKITVYLQMNSLKPEDTAVYYSNKAYPAHYDYLGQGTQVTVSS", "polyreactivity (PSR sort gate)": "low polyreactivity"}, {"sequence": "QVQLVESGGGLVQAGGSLRLICAASGRTFAPYAMGWYRQAPGKEMQLVAAISSGGGNTYYADSVKGRFTISRDNAKNTVYLQMNSLKPEDTAVYYCNAAQRRGGLGYWGQGTQVTVSS", "polyreactivity (PSR sort gate)": "high polyreactivity"}, {"sequence": "QVQLVESGGGLVQAGGSLRLICAASGRTFGGNAMGWYRQAPGKERELVAAISSGGSTNYADSVNGRFTISRDNAKNTVYFLMNSLKPEDTAVYYCAADSKIGSFDSWGQGTQVTVSS", "polyreactivity (PSR sort gate)": "low polyreactivity"}, {"sequence": "QVQLVESGGGLVQAGGSLRLICAASGRTFGRNAMGWYRQAPGKERELVAAISYGGGSTYYADSVKGRFTISRDNAKNTVYLQMNSLKPEDTPGSAAAARYAYGMWGQGTQVTVSS", "polyreactivity (PSR sort gate)": "low polyreactivity"}, {"sequence": "QVQLVESGGGLVQAGGSLRLICAASGRTFGVYAMGWYRQAPGKERELVATIRTTGSTNYADSVKGRYTISRDNAKITVYLEMNSLKTEDTAVYYCAARQRQSKYYPYTTFTYDYWGQGTQVSVSS", "polyreactivity (PSR sort gate)": "high polyreactivity"}, {"sequence": "QVQLVESGGGLVQAGGSLRLICAASGRTFKYKAMGWSRQAPGKERELVAVISRGGSTYADSVKGRFTISRDNAKNTVYLQMNSLKAEDTAVYYCAVGRNSRQASERYGWYKYDYWGQGTQVTVSS", "polyreactivity (PSR sort gate)": "high polyreactivity"}, {"sequence": "QVQLVESGGGLVQAGGSLRLICAASGRTFPYNAMGWSRQAPGKERELVARITSGGRTYYADSVKGRFTISRDNAKNTVYLQMNSLKPEDPAVYYCAAETLRYYWKSYDWGQGTQVTVSA", "polyreactivity (PSR sort gate)": "high polyreactivity"}, {"sequence": "QVQLVESGGGLVQAGGSLRLICAASGRTFRGDAMGWYRPAPGKERELVAAITKSGGSTYYADSVKGRFTISRDNAKNTVYLQMNSLKPEDTAVYYCAKLRSSRDYDYWGQVTQVTVSS", "polyreactivity (PSR sort gate)": "high polyreactivity"}, {"sequence": "QVQLVESGGGLVQAGGSLRLICAASGRTFRHNAMGWYRQAPGKERELVAAISSSGTNTHYADSVKGRFTISRDNAQNTVYLQMNSLKPEDTAVYYCAADRWGARRKQYHENGYWGQGTQVTVSS", "polyreactivity (PSR sort gate)": "high polyreactivity"}, {"sequence": "QVQLVESGGGLVQAGGSLRLICAASGRTFRKYAMGWYRQAPGKERELVAAINRGGTTKYADSVKGRFTISRDNAKNTVYLQMNSLKPEDTAVYYCNAAYGGVFFYAYDYWGQGTQVTVSS", "polyreactivity (PSR sort gate)": "low polyreactivity"}, {"sequence": "QVQLVESGGGLVQAGGSLRLICAASGRTFSTYAMGWYRQAPGKERELVAAISSGGGRTYYADSVKGRFTISRDNAKNTVYLQMNSLKPEDTAVYYCAADRYVRSRRSYEYWGQGTQVTVSS", "polyreactivity (PSR sort gate)": "low polyreactivity"}, {"sequence": "QVQLVESGGGLVQAGGSLRLICAASGRTFSYYAIAWYRPAPGKERELVAAINWSGTRTYYADSVTGRCTISRDNAKNTVYLQMNSLNPEDTAVYYCARRWVGYDYWGQGTQVTVSS", "polyreactivity (PSR sort gate)": "high polyreactivity"}, {"sequence": "QVQLVESGGGLVQAGGSLRLICAASGRTFTLNVMGWYRQAPGKETEFVATITWGGGRTYYADSVKGRFTISRDNAKNTVYLQMNSLKPVDTAVYYCAGQLAKTIRGRGYNSWGQGTQVTVSS", "polyreactivity (PSR sort gate)": "low polyreactivity"}, {"sequence": "QVQLVESGGGLVQAGGSLRLICAASGRTFVYYAMGWYRQAPGKERELVAAITRSGGRTYYEDSVKGSFTISRDNAKNNVYLQMNSLKPEDTAVYYCAARYWDNPFWFDYWGQGTIVTVSS", "polyreactivity (PSR sort gate)": "high polyreactivity"}, {"sequence": "QVQLVESGGGLVQAGGSLRLICAASGRTLAPNAMGWYRQAPGKERELVATITRGGTTNYADSVKGRFTISRDNAKNTVYLQMNSLKPEDTAVYYCAKAHYLGYYQRYDYWGQGTQVTVSS", "polyreactivity (PSR sort gate)": "low polyreactivity"}, {"sequence": "QVQLVESGGGLVQAGGSLRLICAASGRTLDYYAMGWYRQAPGKERELVGAISQSDDSTYYADSVKGRFTISRDNSKNTVYLQMNILKPEDTAVNYCAAEIELFSPDGVGIYWYVYWGQGTQVYVSS", "polyreactivity (PSR sort gate)": "high polyreactivity"}]}]}
